These results are taken from publication doi:10.1101/839423, “Mechanism of the secretion of the lanthipeptide nisin” (bioRxiv, 2019).

B1: 10HNisT, deca-histidine tagged ABC transporter NisT (natural protein, Lactococcus lactis, UniProt Q03203 1-600, looked up)
chain: MDEVKEFTSKQFFYTLLTLPSTLKLIFQLEKRYAIYLIVLNAITAFVPLASLFIYQDLINSVLGSGRHLINIIIIYFIVQVITTVLGQLESYVSGKFDMRLSYSINMRLMRTTSSLELSDYEQADMYNIIEKVTQDSTYKPFQLFNAIIVELSSFISLLSSLFFIGTWNIGVAILLLIVPVLSLVLFLRVGQLEFLIQWQRASSERETWYIVYLLTHDFSFKEIKLNNISNYFIHKFGKLKKGFINQDLAIARKKTYFNIFLDFILNLINILTIFAMILSVRAGKLLIGNLVSLIQAISKINTYSQTMIQNIYIIYNTSLFMEQLFEFLKRESVVHKKIEDTEICNQHIGTVKVINLSYVYPNSNAFALKNINLSFEKGELTAIVGKNGSGKSTLVKIISGLYQPTMGIIQYDKMRSSLMPEEFYQKNISVLFQDFVKYELTIRENIGLSDLSSQWEDEKIIKVLDNLGLDFLKTNNQYVLDTQLGNWFQEGHQLSGGQWQKIALARTFFKKASIYILDEPSAALDPVAEKEIFDYFVALSENNISIFISHSLNAARKANKIVVMKDGQVEDVGSHDVLLRRCQYYQELYYSEQYEDNDE
notes: the nisT gene was amplified from genomic DNA of L. lactis NZ97000; 10HNisT is printed as 72.5 kDa (72.6 kDa in the methods), NisT as about 69 kDa; In the pull-down the detergent was CYMAL5; also called WT; source: L. lactis NZ9000 (pNZ-SV10HnisT), membranes solubilised with Fos-choline-16, purified (IMAC, SEC)

The target of assay [1] is T1, NisB, nisin dehydratase (Lactococcus lactis, UniProt P20103 1-993).
T1 construct: Nisin biosynthesis protein NisB (dehydratase), Lactococcus lactis; printed as about 117 kDa; source: expressed and purified as described previously (Mavaro 2011; Abts 2013; Reiners 2017)
T1 sequence (looked up): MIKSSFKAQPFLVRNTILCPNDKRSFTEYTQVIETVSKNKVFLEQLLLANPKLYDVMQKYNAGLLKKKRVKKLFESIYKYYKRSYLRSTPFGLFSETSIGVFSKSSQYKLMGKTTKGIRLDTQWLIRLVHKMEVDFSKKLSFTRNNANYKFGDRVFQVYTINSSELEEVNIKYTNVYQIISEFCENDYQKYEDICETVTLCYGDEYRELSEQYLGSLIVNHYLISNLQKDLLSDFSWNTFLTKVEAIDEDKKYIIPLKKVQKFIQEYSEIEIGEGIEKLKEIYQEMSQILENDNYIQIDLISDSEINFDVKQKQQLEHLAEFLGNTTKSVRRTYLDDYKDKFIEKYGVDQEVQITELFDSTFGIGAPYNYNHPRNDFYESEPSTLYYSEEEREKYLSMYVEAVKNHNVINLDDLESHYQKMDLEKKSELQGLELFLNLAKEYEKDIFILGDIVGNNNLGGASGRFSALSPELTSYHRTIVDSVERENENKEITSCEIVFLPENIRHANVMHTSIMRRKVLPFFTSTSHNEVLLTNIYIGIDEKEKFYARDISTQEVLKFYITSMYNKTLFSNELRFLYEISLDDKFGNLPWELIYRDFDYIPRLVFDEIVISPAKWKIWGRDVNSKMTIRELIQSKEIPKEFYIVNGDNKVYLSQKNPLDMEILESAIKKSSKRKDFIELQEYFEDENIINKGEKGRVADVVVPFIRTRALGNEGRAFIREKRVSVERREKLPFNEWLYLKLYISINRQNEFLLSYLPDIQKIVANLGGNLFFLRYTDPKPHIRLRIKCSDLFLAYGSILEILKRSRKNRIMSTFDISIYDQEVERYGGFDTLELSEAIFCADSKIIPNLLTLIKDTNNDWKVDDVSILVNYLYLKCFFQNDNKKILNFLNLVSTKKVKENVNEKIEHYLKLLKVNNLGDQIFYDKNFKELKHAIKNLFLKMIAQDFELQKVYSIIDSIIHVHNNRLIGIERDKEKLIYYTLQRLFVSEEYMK
Description: pull-down; about 15 ug 10HNisT immobilised on Ni-NTA magnetic beads; 10 uM NisB, NisC or both, no substrate; 1 h at 30 C; 25 mM Tris-HCl pH 7.5, 50 mM KCl, 0.4% CYMAL5, 400 mM glutamate, 5 mM MgATP; six washes, elution with 50 mM EDTA, Western blot. As to conditions: both partners purified. (In general: In western blotting, separated proteins are transferred to a membrane and probed.)

For assay [2], the target named is B1. Description: pull-down; as a1, with NisB and NisC together (1:1), pre-incubated 15 min on ice with mNisA (20x molar excess to NisT). As to conditions: both partners purified.

Regarding B1, the binding result in assay [1] is reported as “binds”.

B2: NisC, nisin cyclase (enzyme, Lactococcus lactis, UniProt Q03202 1-418, looked up)
chain: MRIMMNKKNIKRNVEKIIAQWDERTRKNKENFDFGELTLSTGLPGIILMLAELKNKDNSKIYQKKIDNYIEYIVSKLSTYGLLTGSLYSGAAGIALSILHLREDDEKYKNLLDSLNRYIEYFVREKIEGFNLENITPPDYDVIEGLSGILSYLLLINDEQYDDLKILIINFLSNLTKENNGLISLYIKSENQMSQSESEMYPLGCLNMGLAHGLAGVGCILAYAHIKGYSNEASLSALQKIIFIYEKFELERKKQFLWKDGLVADELKKEKVIREASFIRDAWCYGGPGISLLYLYGGLALDNDYFVDKAEKILESAMQRKLGIDSYMICHGYSGLIEICSLFKRLLNTKKFDSYMEEFNVNSEQILEEYGDESGTGFLEGISGCILVLSKFEYSINFTYWRQALLLFDDFLKGGKRK
notes: Nisin biosynthesis protein NisC (cyclase), Lactococcus lactis; printed as about 48 kDa; source: expressed and purified as described previously (Mavaro 2011; Abts 2013; Reiners 2017)
As for B2, the binding result in assay [2] was “binds”.
